# According to patent publication US5843746:
# What was measured:
# [1] = target: biotinated firefly luciferase bL203 (Luciola lateralis (HEIKE firefly) luciferase fused to an artificial peptide)
# [2] = target: chemically modified biotinated firefly luciferase (Photinus pyralis) [luciferase: P08659]
# [3] = target: biotinated firefly luciferase bL248 (Luciola lateralis (HEIKE firefly) luciferase fused to a part of E. coli BCCP)
substance,measurement,setting,value
streptavidin (from UniProt P22629),remaining activity after mixed with streptavidin,[1],93%
same,remaining activity after mixed with streptavidin,[2],62%
same,activity maintained upon binding to streptavidin,[3],102%
